US20200306373A1 (Hoffmann-La Roche, published 2020)

Tests used:
[1] = molecular target: T1, murine ICOS Fc(kih) Avi tag (murine, Avi tag, captured on a streptavidin chip); assay: SPR, Biacore T200, 25 C, murine ICOS Fc(kih) on streptavidin chip, antibody injected 1000-31.25 nM, 1:1 Langmuir
T1 construct: also called recombinant murine ICOS Fc(kih)
Protocol: Surface plasmon resonance experiments were performed on a Biacore T200 at 25° C. with HBS-EP as running buffer (0.01 M HEPES pH 7.4, 0.15 M NaCl, 0.005% (v/v) Surfactant P20 (GE Healthcare)).
The immobilization level was approximately 600 RU. […] The dissociation phase was monitored for 500 s and triggered by switching from the sample solution to HBS-EP. The chip surface was regenerated after every cycle using one injection of 10 mM Glycine pH 3.0 for 60 s.
The affinity constants were derived from the kinetic rate constants by fitting to a 1:1 Langmuir binding using the BIAeval software (GE Healthcare).

human ICOS [2] = molecular target: T2, human ICOS (human, UniProt Q9Y6W8 21-199); assay: cell-based or functional assay
T2 sequence: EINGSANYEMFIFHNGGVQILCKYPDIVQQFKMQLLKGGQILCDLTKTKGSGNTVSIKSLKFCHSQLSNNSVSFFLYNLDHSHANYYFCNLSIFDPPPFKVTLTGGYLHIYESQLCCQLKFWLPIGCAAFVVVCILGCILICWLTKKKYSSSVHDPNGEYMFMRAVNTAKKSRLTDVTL

[3] = molecular target: T3, human fibroblast activating protein (huFAP) (human, UniProt Q12884 1-760); assay: flow cytometry on NIH/3T3-huFAP clone 19 cells
T3 construct: Expressed on NIH/3T3-huFAP clone 19 cells; also called human FAP; hFAP
Protocol: (§1) This cell line was generated by the transfection of the mouse embryonic fibroblast NIH/3T3 cell line (ATCC CRL-1658) with the expression vector pETR4921 to express huFAP under […] Puromycin selection.
(§2) The staining was fixed for 20 min at 4° C. in the dark, using 75 μl of 1% PFA in FACS buffer per well. Fluorescence was analyzed by FACS using a FACS Fortessa (Software FACS Diva). Binding curves were obtained using GraphPadPrism6 and are shown in FIGS. 6A-6C and 7A-7B, respectively.

human ICOS [4] = molecular target: T2, human ICOS; assay: flow cytometry, activated human PBMCs, ICOS on CD4+ T cells
human ICOS [5] = molecular target: T2, human ICOS; assay: flow cytometry, activated human PBMCs, ICOS on CD8+ T cells
[6] = molecular target: T3, human fibroblast activating protein …; assay: flow cytometry on NIH/3T3-huFAP clone 19 cells (human FAP), PE anti-human secondary, median fluorescence intensity
Protocol: as §1, §2

human CEA = molecular target: T4, human CEA (human, UniProt P06731 35-685); assay: flow cytometry on MKN45 cells (human CEA), Alexa Fluor 647 anti-human Fc secondary, frequency of A647+ cells
T4 construct: Endogenous CEA on MKN45 human gastric adenocarcinoma cells; also called Carcinoembryonic antigen; CEACAM5
T4 sequence: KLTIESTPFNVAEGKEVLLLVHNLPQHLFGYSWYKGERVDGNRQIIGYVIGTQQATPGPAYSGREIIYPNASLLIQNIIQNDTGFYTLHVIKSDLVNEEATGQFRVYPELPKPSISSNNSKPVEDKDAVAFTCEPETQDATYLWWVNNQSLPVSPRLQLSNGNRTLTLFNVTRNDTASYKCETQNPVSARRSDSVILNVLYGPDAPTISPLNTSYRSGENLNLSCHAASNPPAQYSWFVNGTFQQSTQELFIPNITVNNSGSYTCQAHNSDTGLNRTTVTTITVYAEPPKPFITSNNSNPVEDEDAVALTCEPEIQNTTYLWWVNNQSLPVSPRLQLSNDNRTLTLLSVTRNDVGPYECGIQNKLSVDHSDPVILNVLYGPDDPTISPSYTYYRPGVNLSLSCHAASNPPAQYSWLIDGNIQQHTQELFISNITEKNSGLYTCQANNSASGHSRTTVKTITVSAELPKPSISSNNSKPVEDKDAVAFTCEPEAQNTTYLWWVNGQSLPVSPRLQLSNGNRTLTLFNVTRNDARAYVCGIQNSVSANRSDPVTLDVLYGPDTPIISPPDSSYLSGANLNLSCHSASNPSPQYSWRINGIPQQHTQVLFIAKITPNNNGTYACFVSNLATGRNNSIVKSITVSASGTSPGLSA
Protocol: Briefly, human PBMCs, isolated from either Buffy Coats or fresh blood from healthy human donors (as described in Example 5.1) were incubated in a humidified incubator at 37° C. for 48 hours in RPMI1640 medium including […] PHA-L (Roche, #11249738001) and 100 units/ml recombinant human IL-2 (“Proleukin”, Novartis) at a cell density of 1 million cells per ml.
At the day of the assay, pre-activated PBMCs cells were harvested, washed with PBS, and 0.2 million cells in FACS buffer (PBS with 0.1% BSA) were plated per well of a 96-round bottom-well plate. Likewise, adherent MKN45 tumor cells were detached using trypsin (Gibco, 25300-054), washed and 0.15 million cells were transferred into the 96-round bottom well-plate. […] Cells were washed with FACS buffer and the staining was fixed for 20 min at 4° C. in the dark, using 75 µl of 1% PFA in FACS buffer per well. Cells were washed again two times with FACS Buffer and re-suspended in FACS Buffer for analysis.
Fluorescence was analyzed by FACS using a FACS Fortessa (Software FACS Diva). Binding curves and EC₅₀ values were obtained using GraphPadPrism6.

T1 sequence (chain, as listed by the source limits assumed, chain 1 of 2): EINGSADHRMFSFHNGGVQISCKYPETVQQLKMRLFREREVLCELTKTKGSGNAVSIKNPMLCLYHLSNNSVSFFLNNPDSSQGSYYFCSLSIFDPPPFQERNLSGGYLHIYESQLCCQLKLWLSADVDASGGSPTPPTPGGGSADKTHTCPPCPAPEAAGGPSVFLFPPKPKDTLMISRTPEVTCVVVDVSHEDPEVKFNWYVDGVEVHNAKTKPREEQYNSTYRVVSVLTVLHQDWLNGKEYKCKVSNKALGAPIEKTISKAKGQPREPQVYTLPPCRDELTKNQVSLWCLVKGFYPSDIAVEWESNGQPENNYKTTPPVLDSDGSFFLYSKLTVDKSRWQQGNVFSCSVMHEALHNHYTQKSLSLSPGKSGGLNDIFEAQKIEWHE
T1 sequence (chain, as listed by the source limits assumed, chain 2 of 2): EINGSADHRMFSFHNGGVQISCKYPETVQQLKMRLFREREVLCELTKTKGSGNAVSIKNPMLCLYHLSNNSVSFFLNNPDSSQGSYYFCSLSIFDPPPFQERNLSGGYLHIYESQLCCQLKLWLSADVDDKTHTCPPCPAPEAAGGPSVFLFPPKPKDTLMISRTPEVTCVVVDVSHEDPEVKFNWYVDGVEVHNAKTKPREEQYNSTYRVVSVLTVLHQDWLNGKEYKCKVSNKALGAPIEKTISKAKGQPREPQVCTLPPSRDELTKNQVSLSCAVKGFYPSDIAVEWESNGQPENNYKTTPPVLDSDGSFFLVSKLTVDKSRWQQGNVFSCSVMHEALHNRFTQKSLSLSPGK

Binder	Kd [1]	koff [1]	kon [1]	Fold increase vs TCB only at 200 pM CEA-ICOS (% CD69^+CD4^+), Donor 1 (D1) (human ICOS [2])	Fold increase vs TCB only at 200 pM CEA-ICOS (% CD69^+CD4^+), Donor 2 (D2) (human ICOS [2])	Fold increase vs TCB only at 1000 pM CEA-ICOS (% CD69^+CD4^+), Donor 1 (D1) (human ICOS [2])	Fold increase vs TCB only at 1000 pM CEA-ICOS (% CD69^+CD4^+), Donor 2 (D2) (human ICOS [2])	EC50 [3]	EC50 (human ICOS [4])	EC50 (human ICOS [5])	EC50 (read off the curve) [6]	binding result [6]	EC50 (read off the curve) (human CEA)
anti-ICOS 16E09 IgG1 P329G LALA antibody (antibody, V domains shown, also called phage-derived ICOS-specific antibody 16E09) VH: EVQLVQSGAEVKKPGESLKISCKGSGYSFTSYWIGWVRQMPGKGLEWMGIIYPGDSDTRYSPSFQGQVTISADKSISTAYLQWSSLKASDTAMYYCARSSGPYGLYLDYWGQGTLVTVSS VL: not shown	180 nM	0.0192 s⁻¹	144000 M⁻¹ s⁻¹	–	–	–	–	–	–	–	–	–	–
FAP-ICOS_1+1, huIgG1 P329G LALA, monovalent ICOS (JMAb136), monovalent FAP (4B9) (bispecific antibody, also called ICOS-FAP 1+1; ICOS(JMab136)-FAP(4B9) 1 + 1) heavy 1: not shown light 1: DIQMTQSPSSVSASVGDRVTITCRASQGISRLLAWYQQKPGKAPKLLIYVASSLQSGVPSRFSGSGSGTDFTLTISSLQPEDFATYYCQQANSFPWTFGQGTKVEIKRTVAAPSVFIFPPSDRKLKSGTASVVCLLNNFYPREAKVQWKVDNALQSGNSQESVTEQDSKDSTYSLSSTLTLSKADYEKHKVYACEVTHQGLSSPVTKSFNRGEC heavy 2: EIVLTQSPGTLSLSPGERATLSCRASQSVTSSYLAWYQQKPGQAPRLLINVGSRRATGIPDRFSGSGSGTDFTLTISRLEPEDFAVYYCQQGIMLPPTFGQGTKVEIKSSASTKGPSVFPLAPSSKSTSGGTAALGCLVKDYFPEPVTVSWNSGALTSGVHTFPAVLQSSGLYSLSSVVTVPSSSLGTQTYICNVNHKPSNTKVDKKVEPKSCDKTHTCPPCPAPEAAGGPSVFLFPPKPKDTLMISRTPEVTCVVVDVSHEDPEVKFNWYVDGVEVHNAKTKPREEQYNSTYRVVSVLTVLHQDWLNGKEYKCKVSNKALGAPIEKTISKAKGQPREPQVCTLPPSRDELTKNQVSLSCAVKGFYPSDIAVEWESNGQPENNYKTTPPVLDSDGSFFLVSKLTVDKSRWQQGNVFSCSVMHEALHNHYTQKSLSLSP light 2: EVQLLESGGGLVQPGGSLRLSCAASGFTFSSYAMSWVRQAPGKGLEWVSAIIGSGASTYYADSVKGRFTISRDNSKNTLYLQMNSLRAEDTAVYYCAKGWFGGFNYWGQGTLVTVSSASVAAPSVFIFPPSDEQLKSGTASVVCLLNNFYPREAKVQWKVDNALQSGNSQESVTEQDSKDSTYSLSSTLTLSKADYEKHKVYACEVTHQGLSSPVTKSFNRGEC	–	–	–	2.5 fold	1.5 fold	2.65 fold	1.68 fold	2.98 nM	34.9 nM	50.7 nM	~3 nM	–	–
FAP-ICOS_2+1, huIgG1 P329G LALA, bivalent ICOS (JMAb136), monovalent FAP (4B9) (bispecific antibody, Human IgG1 P329G LALA, knob-into-hole; also called ICOS-FAP 2+1; ICOS(JMab136)-FAP(4B9) 2 + 1) heavy 1: not shown heavy 2: not shown light: DIQMTQSPSSVSASVGDRVTITCRASQGISRLLAWYQQKPGKAPKLLIYVASSLQSGVPSRFSGSGSGTDFTLTISSLQPEDFATYYCQQANSFPWTFGQGTKVEIKRTVAAPSVFIFPPSDRKLKSGTASVVCLLNNFYPREAKVQWKVDNALQSGNSQESVTEQDSKDSTYSLSSTLTLSKADYEKHKVYACEVTHQGLSSPVTKSFNRGEC	–	–	–	2.66 fold	1.38 fold	2.66 fold	1.96 fold	5.19 nM	10.7 nM	14.4 nM	–	–	–
DP47-ICOS_1+1, huIgG1 P329G LALA, monovalent ICOS (JMAb136), monovalent DP47 (bispecific antibody, Untargeted control, human IgG1 P329G LALA; also called ICOS-DP47 control molecule; untargeted DP47-ICOS) heavy 1: not shown light 1: DIQMTQSPSSVSASVGDRVTITCRASQGISRLLAWYQQKPGKAPKLLIYVASSLQSGVPSRFSGSGSGTDFTLTISSLQPEDFATYYCQQANSFPWTFGQGTKVEIKRTVAAPSVFIFPPSDRKLKSGTASVVCLLNNFYPREAKVQWKVDNALQSGNSQESVTEQDSKDSTYSLSSTLTLSKADYEKHKVYACEVTHQGLSSPVTKSFNRGEC heavy 2: not shown light 2: not shown	–	–	–	–	–	–	–	–	19.9 nM	25.7 nM	–	no binding (tested: about 120000 pM)	–
ICOS(JMab136)-CEA(MEDI-565) 1+1, CEA-ICOS_1+1, huIgG1 P329G LALA, monovalent ICOS (JMAb136), monovalent CEA (MEDI-565) (bispecific antibody, Human IgG1 P329G LALA, knob-into-hole; also called CEA(MEDI565)-ICOS(JMAb136)_1 + 1) heavy 1: not shown light 1: DIQMTQSPSSVSASVGDRVTITCRASQGISRLLAWYQQKPGKAPKLLIYVASSLQSGVPSRFSGSGSGTDFTLTISSLQPEDFATYYCQQANSFPWTFGQGTKVEIKRTVAAPSVFIFPPSDRKLKSGTASVVCLLNNFYPREAKVQWKVDNALQSGNSQESVTEQDSKDSTYSLSSTLTLSKADYEKHKVYACEVTHQGLSSPVTKSFNRGEC heavy 2: not shown light 2: EVQLVESGGGLVQPGRSLRLSCAASGFTVSSYWMHWVRQAPGKGLEWVGFIRNKANGGTTEYAASVKGRFTISRDDSKNTLYLQMNSLRAEDTAVYYCARDRGLRFYFDYWGQGTTVTVSSASVAAPSVFIFPPSDEQLKSGTASVVCLLNNFYPREAKVQWKVDNALQSGNSQESVTEQDSKDSTYSLSSTLTLSKADYEKHKVYACEVTHQGLSSPVTKSFNRGEC	–	–	–	4.99 fold	2.91 fold	5.95 fold	2.47 fold	–	–	–	–	–	~0.05 nM
DP47-ICOS_2+1, huIgG1 P329G LALA, bivalent ICOS (JMAb136), monovalent DP47 (bispecific antibody, Untargeted control, human IgG1 P329G LALA, bivalent for ICOS; also called ICOS-DP47 control molecule; untargeted DP47-ICOS) heavy 1: not shown heavy 2: not shown light: DIQMTQSPSSVSASVGDRVTITCRASQGISRLLAWYQQKPGKAPKLLIYVASSLQSGVPSRFSGSGSGTDFTLTISSLQPEDFATYYCQQANSFPWTFGQGTKVEIKRTVAAPSVFIFPPSDRKLKSGTASVVCLLNNFYPREAKVQWKVDNALQSGNSQESVTEQDSKDSTYSLSSTLTLSKADYEKHKVYACEVTHQGLSSPVTKSFNRGEC	–	–	–	–	–	–	–	–	9.99 nM	12.4 nM	–	no binding (tested: about 120000 pM)	–
FAP-ICOS_1+1_HT, huIgG1 P329G LALA, monovalent ICOS (JMAb136), monovalent FAP (4B9) c-terminal fused of the heavy chain C region (bispecific antibody, Human IgG1 P329G LALA, knob-into-hole; 4B9 VH and VL fused to the C-termini of the two Fc chains; also called ICOS-FAP 1+1 HT; 1+1 head-to-tail) heavy 1: not shown heavy 2: DKTHTCPPCPAPEAAGGPSVFLFPPKPKDTLMISRTPEVTCVVVDVSHEDPEVKFNWYVDGVEVHNAKTKPREEQYNSTYRVVSVLTVLHQDWLNGKEYKCKVSNKALGAPIEKTISKAKGQPREPQVCTLPPSRDELTKNQVSLSCAVKGFYPSDIAVEWESNGQPENNYKTTPPVLDSDGSFFLVSKLTVDKSRWQQGNVFSCSVMHEALHNHYTQKSLSLSPGGGGGSGGGGSGGGGSGGGGSEIVLTQSPGTLSLSPGERATLSCRASQSVTSSYLAWYQQKPGQAPRLLINVGSRRATGIPDRFSGSGSGTDFTLTISRLEPEDFAVYYCQQGIMLPPTFGQGTKVEIK light: DIQMTQSPSSVSASVGDRVTITCRASQGISRLLAWYQQKPGKAPKLLIYVASSLQSGVPSRFSGSGSGTDFTLTISSLQPEDFATYYCQQANSFPWTFGQGTKVEIKRTVAAPSVFIFPPSDRKLKSGTASVVCLLNNFYPREAKVQWKVDNALQSGNSQESVTEQDSKDSTYSLSSTLTLSKADYEKHKVYACEVTHQGLSSPVTKSFNRGEC	–	–	–	–	–	–	–	6.73 nM	42.6 nM	56.4 nM	–	–	–
